Source: patent US12698507B2, “Methods and compositions for conferring and/or enhancing herbicide tolerance using protoporphyrinogen IX oxidase of various cyanobacteria or variant thereof” (FarmHannong Co., Ltd., priority 2019, dated 2026)

B1: CyPPO19 A167C + L327T + F360I: variant of CyPPO19 PPO protein (SEQ ID NO: 1) (protein)
chain: MSEVDVAIVGGGLSGLSLAWRLQQSAPQYSVVLLEASDRLGGNITTQTAEGFVWELGPNSFAPTPALLQLIAEVGLQSELIRGDRHLPRYIYWRGQLYPLQPTRPLALATSNLLSPWGKVRAALGALGFVPPYLGSGDESVNSFFRRHLGQEVAERLVAPFVSGVYCGDPQQLSAAAAFRRIAQLEKLGGGLIAGALHLRRQQAPKPKPPTSVQMRPGELGSFKEGLAALPRAIAQQLKAPIHLQTPVQEITPDPKGGYLLRSGEQTWRARSVVLATPAYQTAELVAPFQPAIARVLATIPYPTVACVVLAYPAGLGRSVRPGFGVTIPRSQGIRTLGTIWSSCLFPQRTPAGWQVFTSIIGGATDPDLASLSEEAIVQQVQQDLNRLLDLPAAKARLLGMKVWRRAIPQYMVGYPEQWQQVTHALSQTPGLFLCSNYAEGVALGDRVEHGNRTAAAVAAYLSGGQP
modifications: Synthetic_PPO of Thermosynechococcus elongatus PKUAC-SCTE542 (comprising GenBank No. CP032152.1)
B2: CyPPO19 A167L + L327T + F360M: variant of CyPPO19 PPO protein (SEQ ID NO: 1) (protein)
chain: MSEVDVAIVGGGLSGLSLAWRLQQSAPQYSVVLLEASDRLGGNITTQTAEGFVWELGPNSFAPTPALLQLIAEVGLQSELIRGDRHLPRYIYWRGQLYPLQPTRPLALATSNLLSPWGKVRAALGALGFVPPYLGSGDESVNSFFRRHLGQEVAERLVAPFVSGVYLGDPQQLSAAAAFRRIAQLEKLGGGLIAGALHLRRQQAPKPKPPTSVQMRPGELGSFKEGLAALPRAIAQQLKAPIHLQTPVQEITPDPKGGYLLRSGEQTWRARSVVLATPAYQTAELVAPFQPAIARVLATIPYPTVACVVLAYPAGLGRSVRPGFGVTIPRSQGIRTLGTIWSSCLFPQRTPAGWQVFTSMIGGATDPDLASLSEEAIVQQVQQDLNRLLDLPAAKARLLGMKVWRRAIPQYMVGYPEQWQQVTHALSQTPGLFLCSNYAEGVALGDRVEHGNRTAAAVAAYLSGGQP
modifications: Synthetic_PPO of Thermosynechococcus elongatus PKUAC-SCTE542 (comprising GenBank No. CP032152.1)
B3: CyPPO19 A167I + I408W + F360V: variant of CyPPO19 PPO protein (SEQ ID NO: 1) (protein)
chain: MSEVDVAIVGGGLSGLSLAWRLQQSAPQYSVVLLEASDRLGGNITTQTAEGFVWELGPNSFAPTPALLQLIAEVGLQSELIRGDRHLPRYIYWRGQLYPLQPTRPLALATSNLLSPWGKVRAALGALGFVPPYLGSGDESVNSFFRRHLGQEVAERLVAPFVSGVYIGDPQQLSAAAAFRRIAQLEKLGGGLIAGALHLRRQQAPKPKPPTSVQMRPGELGSFKEGLAALPRAIAQQLKAPIHLQTPVQEITPDPKGGYLLRSGEQTWRARSVVLATPAYQTAELVAPFQPAIARVLATIPYPTVACVVLAYPAGLGRSVRPGFGVLIPRSQGIRTLGTIWSSCLFPQRTPAGWQVFTSVIGGATDPDLASLSEEAIVQQVQQDLNRLLDLPAAKARLLGMKVWRRAWPQYMVGYPEQWQQVTHALSQTPGLFLCSNYAEGVALGDRVEHGNRTAAAVAAYLSGGQP
modifications: Synthetic_PPO of Thermosynechococcus elongatus PKUAC-SCTE542 (comprising GenBank No. CP032152.1)
B4: CyPPO19 A167I + L327T + F360V: variant of CyPPO19 PPO protein (SEQ ID NO: 1) (protein)
chain: MSEVDVAIVGGGLSGLSLAWRLQQSAPQYSVVLLEASDRLGGNITTQTAEGFVWELGPNSFAPTPALLQLIAEVGLQSELIRGDRHLPRYIYWRGQLYPLQPTRPLALATSNLLSPWGKVRAALGALGFVPPYLGSGDESVNSFFRRHLGQEVAERLVAPFVSGVYIGDPQQLSAAAAFRRIAQLEKLGGGLIAGALHLRRQQAPKPKPPTSVQMRPGELGSFKEGLAALPRAIAQQLKAPIHLQTPVQEITPDPKGGYLLRSGEQTWRARSVVLATPAYQTAELVAPFQPAIARVLATIPYPTVACVVLAYPAGLGRSVRPGFGVTIPRSQGIRTLGTIWSSCLFPQRTPAGWQVFTSVIGGATDPDLASLSEEAIVQQVQQDLNRLLDLPAAKARLLGMKVWRRAIPQYMVGYPEQWQQVTHALSQTPGLFLCSNYAEGVALGDRVEHGNRTAAAVAAYLSGGQP
modifications: Synthetic_PPO of Thermosynechococcus elongatus PKUAC-SCTE542 (comprising GenBank No. CP032152.1)
B5: CyPPO19 A167C + I408W + F360I: variant of CyPPO19 PPO protein (SEQ ID NO: 1) (protein)
chain: MSEVDVAIVGGGLSGLSLAWRLQQSAPQYSVVLLEASDRLGGNITTQTAEGFVWELGPNSFAPTPALLQLIAEVGLQSELIRGDRHLPRYIYWRGQLYPLQPTRPLALATSNLLSPWGKVRAALGALGFVPPYLGSGDESVNSFFRRHLGQEVAERLVAPFVSGVYCGDPQQLSAAAAFRRIAQLEKLGGGLIAGALHLRRQQAPKPKPPTSVQMRPGELGSFKEGLAALPRAIAQQLKAPIHLQTPVQEITPDPKGGYLLRSGEQTWRARSVVLATPAYQTAELVAPFQPAIARVLATIPYPTVACVVLAYPAGLGRSVRPGFGVLIPRSQGIRTLGTIWSSCLFPQRTPAGWQVFTSIIGGATDPDLASLSEEAIVQQVQQDLNRLLDLPAAKARLLGMKVWRRAWPQYMVGYPEQWQQVTHALSQTPGLFLCSNYAEGVALGDRVEHGNRTAAAVAAYLSGGQP
modifications: Synthetic_PPO of Thermosynechococcus elongatus PKUAC-SCTE542 (comprising GenBank No. CP032152.1)
B6: CyPPO19 A167L + I408R + F360L: variant of CyPPO19 PPO protein (SEQ ID NO: 1) (protein)
chain: MSEVDVAIVGGGLSGLSLAWRLQQSAPQYSVVLLEASDRLGGNITTQTAEGFVWELGPNSFAPTPALLQLIAEVGLQSELIRGDRHLPRYIYWRGQLYPLQPTRPLALATSNLLSPWGKVRAALGALGFVPPYLGSGDESVNSFFRRHLGQEVAERLVAPFVSGVYLGDPQQLSAAAAFRRIAQLEKLGGGLIAGALHLRRQQAPKPKPPTSVQMRPGELGSFKEGLAALPRAIAQQLKAPIHLQTPVQEITPDPKGGYLLRSGEQTWRARSVVLATPAYQTAELVAPFQPAIARVLATIPYPTVACVVLAYPAGLGRSVRPGFGVLIPRSQGIRTLGTIWSSCLFPQRTPAGWQVFTSLIGGATDPDLASLSEEAIVQQVQQDLNRLLDLPAAKARLLGMKVWRRARPQYMVGYPEQWQQVTHALSQTPGLFLCSNYAEGVALGDRVEHGNRTAAAVAAYLSGGQP
modifications: Synthetic_PPO of Thermosynechococcus elongatus PKUAC-SCTE542 (comprising GenBank No. CP032152.1)

system: PPO-deficient BT3 E. coli (ΔPPO); test: PPO-inhibiting herbicide tolerance test of PPO variants in E. coli (growth on herbicide-containing LB agar); assay type: cell-based; settings: CyPPO19 variants in BT3 (ΔPPO) E. coli; LB agar with 0 to 2,000 μM herbicide, 37° C., dark, 16-20 hours
Procedure, shortened: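 Tolerance was scored against wild-type enzyme: '−' for equal growth, one '+' per 10-fold gain, up to '+++++'. ΔPPO BT3 cells carrying variant plasmids, spotted as a 10-fold dilution series from OD600=0.5, grew 16-20 h at 37° C. in the dark on ampicillin LB agar containing 0 to 2,000 μM herbicide.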

Q: What does the source list for B1?
A: tolerance level relative to wild type, Carfentrazone: + (‘+’ per each 10-fold resistance); tolerance level relative to wild type, Flumioxazin: ++++ (‘+’ per each 10-fold resistance); tolerance level relative to wild type, Fomesafen: ++ (‘+’ per each 10-fold resistance); tolerance level relative to wild type, Oxyfluorfen: +++ (‘+’ per each 10-fold resistance); tolerance level relative to wild type, Saflufenacil: +++ (‘+’ per each 10-fold resistance); tolerance level relative to wild type, Sulfentrazone: ++++ (‘+’ per each 10-fold resistance); tolerance level relative to wild type, Tiafenacil: ++++ (‘+’ per each 10-fold resistance)

Q: Which “tolerance level relative to wild type, Carfentrazone” value does the source give for B2 here?
A: + (‘+’ per each 10-fold resistance)

Q: And the “tolerance level relative to wild type, Flumioxazin” value?
A: +++++ (until ‘+++++’ as maximal resistance)

Q: What about the “tolerance level relative to wild type, Fomesafen” value of the same molecule?
A: +++ (‘+’ per each 10-fold resistance)

Q: And the “tolerance level relative to wild type, Oxyfluorfen” value?
A: +++ (‘+’ per each 10-fold resistance)

Q: And the “tolerance level relative to wild type, Saflufenacil” value?
A: +++++ (until ‘+++++’ as maximal resistance)

Q: And the “tolerance level relative to wild type, Sulfentrazone” value?
A: +++++ (until ‘+++++’ as maximal resistance)

Q: What about the “tolerance level relative to wild type, Tiafenacil” value of the same molecule?
A: +++++ (until ‘+++++’ as maximal resistance)

Q: For B3, which “tolerance level relative to wild type, Carfentrazone” value is on record?
A: + (‘+’ per each 10-fold resistance)

Q: What about the “tolerance level relative to wild type, Flumioxazin” value of the same molecule?
A: ++++ (‘+’ per each 10-fold resistance)

Q: And the “tolerance level relative to wild type, Fomesafen” value?
A: + (‘+’ per each 10-fold resistance)

Q: What about the “tolerance level relative to wild type, Oxyfluorfen” value of the same molecule?
A: ++ (‘+’ per each 10-fold resistance)

Q: And the “tolerance level relative to wild type, Saflufenacil” value?
A: ++++ (‘+’ per each 10-fold resistance)

Q: And the “tolerance level relative to wild type, Sulfentrazone” value?
A: +++ (‘+’ per each 10-fold resistance)

Q: What about the “tolerance level relative to wild type, Tiafenacil” value of the same molecule?
A: ++++ (‘+’ per each 10-fold resistance)

Q: Which results are given for B4?
A: tolerance level relative to wild type, Carfentrazone: + (‘+’ per each 10-fold resistance); tolerance level relative to wild type, Flumioxazin: +++++ (until ‘+++++’ as maximal resistance); tolerance level relative to wild type, Fomesafen: +++ (‘+’ per each 10-fold resistance); tolerance level relative to wild type, Oxyfluorfen: +++ (‘+’ per each 10-fold resistance); tolerance level relative to wild type, Saflufenacil: +++++ (until ‘+++++’ as maximal resistance); tolerance level relative to wild type, Sulfentrazone: +++++ (until ‘+++++’ as maximal resistance); tolerance level relative to wild type, Tiafenacil: +++++ (until ‘+++++’ as maximal resistance)

Q: Which results are given for B5?
A: tolerance level relative to wild type, Carfentrazone: + (‘+’ per each 10-fold resistance); tolerance level relative to wild type, Flumioxazin: +++++ (until ‘+++++’ as maximal resistance); tolerance level relative to wild type, Fomesafen: +++ (‘+’ per each 10-fold resistance); tolerance level relative to wild type, Oxyfluorfen: +++ (‘+’ per each 10-fold resistance); tolerance level relative to wild type, Saflufenacil: +++++ (until ‘+++++’ as maximal resistance); tolerance level relative to wild type, Sulfentrazone: +++++ (until ‘+++++’ as maximal resistance); tolerance level relative to wild type, Tiafenacil: +++++ (until ‘+++++’ as maximal resistance)

Q: Which “tolerance level relative to wild type, Carfentrazone” value does the source give for B6 here?
A: + (‘+’ per each 10-fold resistance)

Q: What about the “tolerance level relative to wild type, Flumioxazin” value of the same molecule?
A: ++++ (‘+’ per each 10-fold resistance)

Q: What about the “tolerance level relative to wild type, Fomesafen” value of the same molecule?
A: +++ (‘+’ per each 10-fold resistance)

Q: And the “tolerance level relative to wild type, Oxyfluorfen” value?
A: +++ (‘+’ per each 10-fold resistance)

Q: What about the “tolerance level relative to wild type, Saflufenacil” value of the same molecule?
A: ++++ (‘+’ per each 10-fold resistance)

Q: And the “tolerance level relative to wild type, Sulfentrazone” value?
A: ++++ (‘+’ per each 10-fold resistance)

Q: What about the “tolerance level relative to wild type, Tiafenacil” value of the same molecule?
A: ++++ (‘+’ per each 10-fold resistance)
